Values joined by “and” are separate entries in the source; they are usually repeats but may differ in a detail not shown here. Equal values may be shown once.
Assays:
[1] = molecular target: T1, recombinant mouse Tie1-Fc (mouse, UniProt Q06806 23-755, limits assumed); assay: BIAcore, mouse Tie-1 Fc over IgG coupled to CM5 chip, 1:1 fit
T1 construct: also called Tie-1 Fc Mouse; not shown: Fc
T1 sequence (looked up): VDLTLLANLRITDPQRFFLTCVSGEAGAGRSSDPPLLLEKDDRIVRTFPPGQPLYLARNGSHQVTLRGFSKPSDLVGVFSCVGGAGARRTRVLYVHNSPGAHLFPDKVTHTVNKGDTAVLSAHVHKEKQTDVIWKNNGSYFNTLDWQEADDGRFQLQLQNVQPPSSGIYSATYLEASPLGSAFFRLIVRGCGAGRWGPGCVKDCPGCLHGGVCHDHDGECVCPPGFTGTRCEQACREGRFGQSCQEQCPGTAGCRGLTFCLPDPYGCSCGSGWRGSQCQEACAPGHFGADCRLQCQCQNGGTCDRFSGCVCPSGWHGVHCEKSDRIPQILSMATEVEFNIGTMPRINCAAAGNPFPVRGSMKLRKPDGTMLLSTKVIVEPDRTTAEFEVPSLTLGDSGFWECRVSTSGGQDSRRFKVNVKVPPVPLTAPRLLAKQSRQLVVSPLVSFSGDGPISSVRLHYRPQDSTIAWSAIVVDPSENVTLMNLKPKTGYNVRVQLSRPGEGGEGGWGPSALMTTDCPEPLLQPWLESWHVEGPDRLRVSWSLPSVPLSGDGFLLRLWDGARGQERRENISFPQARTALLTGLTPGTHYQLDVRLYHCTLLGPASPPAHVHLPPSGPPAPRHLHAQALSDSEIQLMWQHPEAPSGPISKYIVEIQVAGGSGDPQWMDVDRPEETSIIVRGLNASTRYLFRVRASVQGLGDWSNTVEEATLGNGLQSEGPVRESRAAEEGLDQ
Experimental: This was then used to transiently transfect HEK293T cells using established procedures. The IgG was purified from the culture supernatant using protein A column chromatography using established procedures and the subsequent IgG was then tested for binding activity using surface plasmon resonance (BIAcore). […] The IgG were directly coated via onto a CM5 chip. […] All flow cells were subsequently deactivated with a 7 minute pulse of 1M ethanolamine hydrochloride pH8.5. All analysis was performed in HBS buffer. Purified recombinant mouse Tie-1 Fc was diluted 1/6.5 in HBS to obtain a 400 nM stock solution. Serial dilutions were made to obtain 200 nM, 100 nM, 50 nM and 25 nM Tie-1 Fc stocks. For analysis of the association phase samples were injected at 30 μl/min for 8.3 minutes using kinject program. This was followed by a 40 minutes dissociation phase. Any antigen remaining associated to the surface was stripped from the IgG surface at a flow of 50μl/min with two injections of 10 mM glycine pH1.5 for 30 seconds. All samples were run and analyzed in duplicate
(§1) Sensorgrams were analyzed using the simultaneous ka/kd fitting program with 1:1 model in the BIAEVALUATION™ software 3.1.

[2] = molecular target: T2, recombinant human Tie1-Fc (Tie1 extracellular domain fused to human Fc) (human, UniProt P35590 25-759); assay: BIAcore, human Tie-1 Fc over IgG coupled to CM5 chip, 1:1 fit
T2 construct: also called Tie-1 Fc Human; not shown: human Fc
T2 sequence: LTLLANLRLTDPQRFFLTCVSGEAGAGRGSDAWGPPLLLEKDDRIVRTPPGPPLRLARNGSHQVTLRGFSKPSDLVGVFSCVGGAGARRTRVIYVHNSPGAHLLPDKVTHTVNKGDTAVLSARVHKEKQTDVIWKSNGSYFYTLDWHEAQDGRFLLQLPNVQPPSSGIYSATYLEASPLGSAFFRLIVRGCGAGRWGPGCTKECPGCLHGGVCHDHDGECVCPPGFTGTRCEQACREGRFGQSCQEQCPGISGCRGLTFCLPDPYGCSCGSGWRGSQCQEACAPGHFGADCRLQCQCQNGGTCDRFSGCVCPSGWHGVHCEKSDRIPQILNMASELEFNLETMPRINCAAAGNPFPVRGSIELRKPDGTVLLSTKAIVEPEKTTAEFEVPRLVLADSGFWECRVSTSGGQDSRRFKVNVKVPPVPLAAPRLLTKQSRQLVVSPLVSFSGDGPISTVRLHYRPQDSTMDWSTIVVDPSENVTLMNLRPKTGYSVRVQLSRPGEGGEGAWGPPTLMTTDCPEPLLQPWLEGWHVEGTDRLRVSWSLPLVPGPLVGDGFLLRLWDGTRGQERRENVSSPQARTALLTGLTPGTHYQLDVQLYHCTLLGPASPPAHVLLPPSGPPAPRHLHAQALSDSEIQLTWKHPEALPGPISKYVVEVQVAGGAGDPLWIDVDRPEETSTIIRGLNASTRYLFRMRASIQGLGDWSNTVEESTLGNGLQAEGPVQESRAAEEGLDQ
Experimental: The IgG were directly coated onto a CM5 chip. […] All flow cells were subsequently deactivated with a 7 minute pulse of 1M ethanolamine hydrochloride pH 8.5. All analysis was performed in HBS buffer. Purified recombinant human Tie-1 Fc was diluted 1/28.7 in HBS to obtain a 400 nM stock solution. Serial dilutions were made to obtain 200 nM, 100 nM, 50 nM and 25 nM Tie-1 Fc stocks. For analysis of the association phase samples were injected at 30 μl/min for 8.3 minutes using kinject program. This was followed by a 40 minutes dissociation phase. Any antigen remaining associated to the surface was stripped from the IgG surface at a flow of 50μl/min with two injections of 10 mM glycine pH 1.5 for 30 secods. All samples were run and analyzed in duplicate
as §1

[3] = molecular target: T3, endogenous human Tie1 of primary human endothelial cells (HDMEC/HDMVEC, HUVEC) and human tissues (human, UniProt P35590 25-1138); assay: cell-based or functional assay
[4] = molecular target: T4, human Tie1, full length, V5-tagged (pcDNA3-Tie1-V5), in transiently transfected COS1 cells (human, UniProt P35590 25-1138); assay: Western blot, Tie1-V5-transfected COS1
T4 construct: it is not expressly tied to the pcDNA3-Tie1-V5 construct; also called Tie1-transfected; transfected Tie1
Experimental: COS1 cells were transfected with pcDNA3-Tie1-V5 (1 μg DNA per 10 cm cell culture plate) using FUGENE 6 (Roche) according to manufacturer's instruction and incubated for 48 h before stimulation. For immunoprecipitation, Tie1 transfected cells and HMVEC cells were lysed in DOC-RIPA lysis buffer (50 mM Tris-HCl pH 8.0, 150 mM NaCl, 1% Triton-X-100, 0.1% SDS, 1% DOC, 10 mM EDTA) supplemented with aprotinin, leupeptin, PMSF and sodium vanadate. Immunoprecipitation was carried out from equal amount of cell lysates by incubating with polyclonal anti-human Tie1 antibodies (R&D), monoclonal anti-V5 antibodies (Invitrogen) or altogether 23 anti-Tie1 antibodies (1μg/ml) for 1 to 2 h followed by incubation with protein G-Sepharose (Amersham Pharmacia Biotech AB) for 1 h. The immunoprecipitates were washed twice with PBS-T and twice with PBS, followed by elution with the Laemmli buffer and separation in 8% SDS-PAGE. The blots were probed with the 23 anti-Tie1 antibodies (5 μg/ml) and subsequently anti-human Fc antibodies conjugated with HRP.
Next, to find out if the anti-Tie1 antibodies recognize Tie1 in living cells, those cells were studied by immunofluorescence staining.

[5] = molecular target: T3, endogenous human Tie1 of primary human …; assay: immunofluorescence, HDMEC

Binder	Kd [1]	koff [1]	kon [1]	Kd [2]	koff [2]	kon [2]	IC50 of tube formation by HUVECs [3]	binding result [4]	binding result [5]
E3 IgG (parental anti-Tie1 antibody E3, human IgG1) (antibody, V domains shown, also called E3 IgG1; parental E3) VH: EVQLLESGGGLVQPGGSLRLSCAASGFTFSMYGMVWVRQAPGKGLEWVSVISPSGGNTGYADSVKGRFTISRDNSKNTLYLQVNSLRAEDTAVYYCARAPRGYSYGYYYWGQGTLVTVSS VL: DIQMTQSPLSLSASVGDRVTITCRASQGIGHYLAWYQQKPGKVPKLLIYTASTLQSGVPSRFSGSGSGTDFTLTINSLQPEDVATYYCQQFNSYPHTFGQGTRLDIK	14.9 nM	9.2e-05 s⁻¹	6170 M⁻¹ s⁻¹	5.83 nM	3.61e-05 s⁻¹	6190 M⁻¹ s⁻¹	10 ng/ml and 66 pM		
germlined E3 IgG (light chain framework regions germlined to DPK4; heavy chain as parental) (antibody, V domains shown, also called germlined E3 IgG1; germlined anti Tie1 E3-IgG) VH: EVQLLESGGGLVQPGGSLRLSCAASGFTFSMYGMVWVRQAPGKGLEWVSVISPSGGNTGYADSVKGRFTISRDNSKNTLYLQVNSLRAEDTAVYYCARAPRGYSYGYYYWGQGTLVTVSS VL: DIQMTQSPSSLSASVGDRVTITCRASQGIGHYLAWYQQKPGKVPKLLIYTASTLQSGVPSRFSGSGSGTDFTLTISSLQPEDVATYYCQQFNSYPHTFGQGTRLEIK	15 nM	8.99e-05 s⁻¹	6000 M⁻¹ s⁻¹	5.17 nM	3.67e-05 s⁻¹	7090 M⁻¹ s⁻¹	10 ng/ml and 66 pM		
P-B3 IgG (anti-Tie1 isolate p-B3, human IgG1) (antibody, V domains shown, the VL entry stops within FR4) VH: EVQLLESGGGLVQPGGSLRLSCAASGFTFSRYGMHWVRQAPGKGLEWVSVISPSGGMTYYADSVKGRFTISRDNTKNTLYLQMNSLRAEDTAVYYCARVGATGPFDIWGQGTMVTVSS VL: DIQMTQSPATLSLSPGERATLSCRASQSVSTYLAWYQQKPGQAPRLLIYDASNRATGIPGRFSGSGSGTDFTLTISSLEAEDFAVYYCQQRSSWPITFGQG								binds	binds
